The values that follow come from patent US20050164345A1, “Synthesis of human procollagens and collagens in recombinant DNA systems” (priority 1992, published 2005).

Read-outs that look alike come from different tables or passages of the source.

A short description of data set [1]: protease digestion and thermal stability of recombinant type II human collagen from insect cells. Type of data set: physicochemical. To be noted: expressed in recombinant insect cells. How it is done:
Purification and analysis of Collagen Types I and II. Collagens types I and II were purified as described supra.
The thermal stability of the recombinant type II human collagen expressed from the recombinant insect cells was measured and compared with native type I human collagen. […] The Tm of the recombinant type II collagen was up to about 40° C.

Data set [2] is described as follows: thermal stability of type III collagen produced in insect cells, trypsin/chymotrypsin digestion after heating to various temperatures. The data set is classed as physicochemical. As for the experimental part: Other aliquots were studied by a radioimmuno-assay for the trimeric N-propeptide of human type III procollagen (Farmos Diagnostica) and a colorimetric method for 4-hydroxyproline (Kivirikko et al., Anal. Biochem. 19: 249-255 (1967)). Still further aliquots were digested with pepsin for 1 h at 22° C. (Bruckner et al., Anal. Biochem. 110: 360-368 (1981)), and the thermal stability of the pepsin-resistant recombinant type III collagen was measured by rapid digestion with a mixture of trypsin and chymotrypsin.
The thermal stability of the type III collagen expressed under different cell culture conditions was studied by using digestion with a mixture of trypsin and chymotrypsin after heating to various temperatures (Bruckner, et al., Anal. Biochem. 110: 360-368 (1981)). High Five cells were infected with viruses coding for the proα1 (III) chains and the a and β subunits of human prolyl 4-hydroxylase. The cells were harvested 72 h after infection, homogenized in a buffer containing 0.2% Triton X-100 and centrifuged. In these experiments, ascorbate was either added daily to the cell culture medium as usual or omitted during the infection. The Triton X-100 soluble proteins were first digested with pepsin for 1 h at 22° C. to convert type III procollagen to type III collagen (Pihlajaniemi et al., EMBO J. 6: 643-649 (1987)), and the trypsin/chymotrypsin digestion was then performed for aliquots of the pepsin-treated samples. The samples were then electrophoresed on 8% SDS-PAGE and analyzed by Coomassie staining. FIG. 11 provides the results of this thermal stability for a variety of collagen products. As set forth in panel A, the cells were infected only with the virus coding for the proα1 (III) chains, and ascorbate was omitted from the culture medium; panel B, the cells were infected only with the virus coding for the proα1 (III) chains, and ascorbate was present in the culture medium as usually; panel C, the cells were coinfected with viruses coding for the proα1 (III) chains, and the α and β subunits of prolyl 4-hydroxylase, but ascorbate was omitted from the culture medium; and panel D, the cells were infected with the three viruses, and ascorbate was present in the culture medium. […] The arrows show the position of the α1 (III) chains. […] (FIG. 11A). […] In contrast, when the proα1 (III) chains were produced in the presence of both prolyl 4-hydroxylase and ascorbate, the Tm of type III collagen was increased considerably, being at about 38-40° C. (FIG. 11D).

The nature of data set [3]: CD spectrum analysis of purified recombinant type III collagen. Type of data set: physicochemical. As for the experimental part: Type III procollagen was expressed in High Five cells cultured either as monolayers or in suspension in shaker flasks. The cells were harvested 72 h after infection, homogenized in a buffer containing 0.1% Triton X-100 and centrifuged, and the supernatant of the cell homogenate was passed through a DEAE cellulose column to remove nucleic acids. The flow through fractions containing the type III procollagen were pooled and digested with pepsin. This converted the type III procollagen to type III collagen and digested most of the noncollagenous proteins. The type III collagen was then concentrated by salt precipitation, solubilized and treated with pepsin as above. The type III collagen was finally separated from pepsin and other remaining contaminants by gel filtration on a Sephacryl S 500-HR column. The fractions containing the type III collagen were pooled, dialyzed and lyophilized. The purified type III collagen was analyzed by 5% SDS-PAGE under reducing (FIG. 9, lane 2) and nonreducing (FIG. 9, lane 3) conditions. […] Amino acid and CD spectrum analysis were performed on the purified type III collagen. The amino acid composition of the recombinant type III obtained corresponded well with the amino acid composition reported for human type III collagen. […] The melting temperature of the recombinant type III collagen determined by CD spectrum analysis was 40° C.

Data set [4] has as its system prolyl 4-hydroxylase. Put plainly: Km values of prolyl 4-hydroxylase, assay based on decarboxylation of 2-oxo[1-14C]glutarate. The data set is classed as biochemical, human. To be noted: other substrates held constant. As for the experimental part:
When the time course of protein expression was examined, Sf9 cells infected with recombinant viruses were labeled with [^35S]methionine (10 μCi/μl; Amersham; 1 Ci=[…]) for 2 hours at various time points between 24 and 50 hours after infection and collected for analysis by SDS/10% PAGE. To determine the maximal accumulation of recombinant protein, cells were harvested at various times from 24 to 96 hours after infection and analyzed on by SDS/10% PAGE. Both the 0.1% Triton X-100- and 1% SDS-soluble fractions of the cells were analyzed. Prolyl 4-hydroxylase activity was assayed by a method based on the decarboxylation of 2-oxo[1-^14C^−]glutarate (Kivirikko et al., Methods in Enzymology 82: 245-304 (1982)). The Km values were determined by varying the concentrations of one substrate in the presence of fixed concentration of the second, while the concentrations of the other substrates were held constant (Myllyla et al., Eur. J. Biochem. 80: 349-357 (1977)). Protein disulfide-isomerase activity of the β subunit was measured by glutathione: insulin transhydrogenase assay (Carmichael et al., J. Biol. Chem. 252: 7163-7167 (1977)). Western blot analysis was performed using a monoclonal antibody, 5B5, to the β subunit of human prolyl 4-hydroxylase (Hoyhtya et al., Eur. J. Biochem. 141: 477-482 (1984)). Prolyl 4-hydroxylase was purified by a procedure consisting of poly (L-proline) affinity chromatography, DEAE-cellulose chromatography, and gel filtration (Kivirikko et al., Methods in Enzymology 144: 96-114 (1987)).
Table 2 presented data on the enzymic activity of the recombinant enzyme. The Km values were determined by varying the concentration of one substrate in the presence of fixed concentrations of the second while the concentration of the other substrates were held constant.

Setting [5] is: substrate 2-oxoglutarate, read-out: Km value, 2-oxoglutarate.
The mark [6] stands for this setting: substrate (Pro—Pro-Gly)10, read-out: Km value, (Pro—Pro-Gly)10.
[7] abbreviates: substrate Fe^+2, read-out: Km value, Fe^+2.
The mark [8] stands for this setting: substrate ascorbate, read-out: Km value, ascorbate.

For the molecule “recombinant type II collagen: recombinant type II human collagen expressed from recombinant insect cells”, in data set [1], the “Tm of the recombinant type II collagen” value was “up to 40 °C”; the “trypsin and chymotrypsin digestion” value was “resistance to trypsin and chymotrypsin digestion”.
Consider “recombinant type III collagen: recombinant human type III collagen produced in insect cells, pepsin-converted from type III procollagen”, for which the “effect on the thermal stability” value in data set [2] (High Five cells, either ascorbate or prolyl 4-hydroxylase present without the other (FIG. 11B and 11C)) is listed as “virtually no increasing effect”. Further, the “Tm of type III collagen” value in data set [2] (High Five cells, proα1 (III) chains expressed without prolyl 4-hydroxylase and ascorbate (FIG. 11A)) is 32-34 °C; in data set [2] (High Five cells, proα1 (III) chains produced in the presence of both prolyl 4-hydroxylase and ascorbate (FIG. 11D)) it was 38-40 °C. In addition, in data set [3] (purified human type III collagen produced in insect cells), the “Tm of the triple helices by CD spectra compared with authentic type III collagen” value is “virtually identical”. The “melting temperature determined by CD spectrum analysis” value in data set [3] (purified type III collagen from High Five cells) is 40 °C.
Consider “α582β2: recombinant human prolyl 4-hydroxylase tetramer from Sf9 cells infected with α58 virus and β virus”, for which the Km in data set [4] (setting [5]) was found to be 22 µM; in data set [4] (setting [6]), 18 µM; in data set [4] (setting [7]), 4 µM; in data set [4] (setting [8]), 330 µM.
For the molecule “α592β2: recombinant human prolyl 4-hydroxylase tetramer from Sf9 cells infected with α59 virus and β virus”, the Michaelis constant (Km) in data set [4] (setting [5]) stood at 25 µM; in data set [4] (setting [6]), 18 µM; in data set [4] (setting [7]), 4 µM; in data set [4] (setting [8]) it was 330 µM.

B1: proα1 chains of type III procollagen: type III procollagen expressed in insect cells without recombinant prolyl 4-hydroxylase (protein, UniProt P02461 24-1466, looked up)
pro-form: QQEAVEGGCSHLGQSYADRDVWKPEPCQICVCDSGSVLCDDIICDDQELDCPNPEIPFGECCAVCPQPPTAPTRPPNGQGPQGPKGDPGPPGIPGRNGDPGIPGQPGSPGSPGPPGICESCPTGPQNYSPQYDSYDVKSGVAVGGLAGYPGPAGPPGPPGPPGTSGHPGSPGSPGYQGPPGEPGQAGPSGPPGPPGAIGPSGPAGKDGESGRPGRPGERGLPGPPGIKGPAGIPGFPGMKGHRGFDGRNGEKGETGAPGLKGENGLPGENGAPGPMGPRGAPGERGRPGLPGAAGARGNDGARGSDGQPGPPGPPGTAGFPGSPGAKGEVGPAGSPGSNGAPGQRGEPGPQGHAGAQGPPGPPGINGSPGGKGEMGPAGIPGAPGLMGARGPPGPAGANGAPGLRGGAGEPGKNGAKGEPGPRGERGEAGIPGVPGAKGEDGKDGSPGEPGANGLPGAAGERGAPGFRGPAGPNGIPGEKGPAGERGAPGPAGPRGAAGEPGRDGVPGGPGMRGMPGSPGGPGSDGKPGPPGSQGESGRPGPPGPSGPRGQPGVMGFPGPKGNDGAPGKNGERGGPGGPGPQGPPGKNGETGPQGPPGPTGPGGDKGDTGPPGPQGLQGLPGTGGPPGENGKPGEPGPKGDAGAPGAPGGKGDAGAPGERGPPGLAGAPGLRGGAGPPGPEGGKGAAGPPGPPGAAGTPGLQGMPGERGGLGSPGPKGDKGEPGGPGADGVPGKDGPRGPTGPIGPPGPAGQPGDKGEGGAPGLPGIAGPRGSPGERGETGPPGPAGFPGAPGQNGEPGGKGERGAPGEKGEGGPPGVAGPPGGSGPAGPPGPQGVKGERGSPGGPGAAGFPGARGLPGPPGSNGNPGPPGPSGSPGKDGPPGPAGNTGAPGSPGVSGPKGDAGQPGEKGSPGAQGPPGAPGPLGIAGITGARGLAGPPGMPGPRGSPGPQGVKGESGKPGANGLSGERGPPGPQGLPGLAGTAGEPGRDGNPGSDGLPGRDGSPGGKGDRGENGSPGAPGAPGHPGPPGPVGPAGKSGDRGESGPAGPAGAPGPAGSRGAPGPQGPRGDKGETGERGAAGIKGHRGFPGNPGAPGSPGPAGQQGAIGSPGPAGPRGPVGPSGPPGKDGTSGHPGPIGPPGPRGNRGERGSEGSPGHPGQPGPPGPPGAPGPCCGGVGAAAIAGIGGEKAGGFAPYYGDEPMDFKINTDEIMTSLKSVNGQIESLISPDGSRKNPARNCRDLKFCHPELKSGEYWVDPNQGCKLDAIKVFCNMETGETCISANPLNVPRKHWWTDSSAEKKHVWFGESMDGGFQFSYGNPELPEDVLDVHLAFLRLLSSRASQNITYHCKNSIAYMDQASGNVKKALKLMGSNEGEFKAEGNSKFTYTVLEDGCTKHTGEWSKTVFEYRTRKAVRLPIVDIAPYDIGGPDQEFGVDVGPVCFL
modifications: pro-form
notes: type III procollagen expressed in insect cells without recombinant prolyl 4-hydroxylase
For B1, the “Tm of the triple helices, lower than procollagen produced in the presence of recombinant prolyl 4-hydroxylase” value in data set [2] (insect cells, without recombinant prolyl 4-hydroxylase) was “about 6 °C”.
